Measured values published in US12065466B2, “Methods and compositions for protein sequencing” (Quantum-Si Incorporated, priority 2020, dated 2024).

Test system: amino acid at a terminal position of a polypeptide
Assay: Amino acid binding preference of recognition proteins (Tables 1 and 2)
Settings: Table 1, ClpS proteins; amino acid identity at a terminal position of a polypeptide; inferred from literature and/or demonstrated by the inventors
Excerpt: It should be appreciated that these sequences and other examples described herein are meant to be non-limiting, and recognition molecules in accordance with the application can include any homologs, variants thereof, or fragments thereof minimally containing domains or subdomains responsible for peptide recognition.

B1: Escherichia coli ClpS: ClpS protein, SEQ ID NO: 108 (protein, listed as Escherichia coli)
chain: MGKTNDWLDFDQLAEEKVRDALKPPSMYKVILVNDDYTPMEFVIDVLQKFFSYDVERATQLMLAVHYQGKAICGVFTAEVAETKVAMVNKYARENEHPLLCTLEKA
With B1 the “Binding Pref.” value was “F, W, Y, L”.

B2: PS577: PS372-homologous ClpS protein, SEQ ID NO: 91 (protein, listed as Tuwongella immobilis)
chain: MSASSSQPGTTTKPDLDIQPRLLPPFHVILENDEFHSMEFVIDTLRKVLGVSIERAYQLMMTAHESGQAIIWTGPKEVAELKYEQVIGFHEKRSDGRDLGPLGCRIEPAV
With B2 the “Binding Pref.” value was “I, L, V”.

B3: PS574: PS372-homologous ClpS protein, SEQ ID NO: 88 (protein, listed as Gemmata obscuriglobus)
chain: MANATPTPDVVPEEETETRTRRQPPYAVVLHNDDTNTMDFVVTVLRKVFGYTVEKCVELMLEAHTQGKVAVWIGALEVAELKADQIKSFGPDPHVTKNGHPLGVTVEPAA
In the case of B3, the “Binding Pref.” value is reported as “I, L, V”.

B4: PS570: PS372-homologous ClpS protein, SEQ ID NO: 84 (protein, listed as Leptospira congkakensis)
chain: MTGAGASQPSILEETEVRPRLSDGPWKVVLWDDDFHTYEYVIEMLMDVCQMPWEKAFQHAVEVDTRKKTIVFSGELEHAEFVHERILNYGPDPRMGSSKGSMTATLEQ
B4 was tested, and the “Binding Pref.” value was “I, L, V”.

B5: PS571: PS372-homologous ClpS protein, SEQ ID NO: 85 (protein, listed as Leptospira meyeri)
chain: MTSSGASQPSILEETERKPRLSDGPWKVVLWDDDFHTYEYVIEMLMDVCQMPWEKAFQHAVEVDTRKKTIVFFGELEHAEFVHERILNYGPDPRMGTSKGSMTATLEK
In the case of B5, the “Binding Pref.” value is reported as “I, L, V”.

B6: PS376: ClpS protein, SEQ ID NO: 9 (protein)
chain: MPTNDLDLLEKQDVKIERPKMYQVVMYNDDFTPFDFVVAVLMQFFNKGMDEATAIMMQVHMQGKGICGVFPKDIAETKATEVMKWAKVEQHPLRLQVEAQA
B6 was tested, and the “Binding Pref.” value was “F, W, L”.

B7: PS575: PS372-homologous ClpS protein, SEQ ID NO: 89 (protein, listed as Leptospira kmetyi)
chain: MASTQTPDLNEITEESTKSTGGPWRVVLWDDNEHTYEYVIEMLMEICTMTVEKAFLHAVQVDQEKRTVVFSGEFEHAEHVQERILTYGADPRMSNSKGSMSATLEK
In the case of B7, the “Binding Pref.” value is reported as “I, L, V”.

B8: PS576: PS372-homologous ClpS protein, SEQ ID NO: 90 (protein)
chain: MASTQTPDLNEITEESTKSTGGPWRVVLWDDNEHTYEYVIEMLVEICMMTVEKAFLHAVQVDKEKRTVDFSGELEHAEHVQERILNYGADPRMSNSKGSMSATLER
modifications: Leptospira interrogans
For B8, the “Binding Pref.” value was “I, L, V”.

B9: PS567: PS372-homologous ClpS protein, SEQ ID NO: 81 (protein, listed as Planctomycetaceae bacterium)
chain: MADYEDAGEDALEDDFDHGTVTVAPQKPEPKKQSENKRQANRQPRYNVLLWDSEDHTFEYVEKMLRELFGHIKKQCQIIAEQVDQEGRAVVLTTTLEHAELKRDQIHAYGKDQLEGSKGSMWSTIEAVD
B9 was tested, and the “Binding Pref.” value was “I, L, V”.

B10: atClpS2: Agrobacterium tumifaciens ClpS2, SEQ ID NO: 94 (protein, listed as Agrobacterium tumifaciens)
chain: MSDSPVDLKPKPKVKPKLERPKLYKVMLLNDDYTPREFVTVVLKAVFRMSEDTGRRVMMTAHRFGSAVVVVCERDIAETKAKEATDLGKEAGFPLMFTTEPEE
For B10, the “Binding Pref.” value was “F, W, Y”.

B11: atClpS2-V1 + C72S: ClpS protein, SEQ ID NO: 101 (protein)
chain: MSDSPVDLKPKPKVKPKLERPKLYKVMLLNDDYTPMSFVTVVLKAVFRMSEDTGRRVMMTAHRFGSAVVVVSERDIAETKAKEATDLGKEAGFPLMFTTEPEE
With B11 the “Binding Pref.” value was “F, W, Y”.

B12: atClpS2 C72S: ClpS protein, SEQ ID NO: 100 (protein)
chain: MSDSPVDLKPKPKVKPKLERPKLYKVMLLNDDYTPREFVTVVLKAVFRMSEDTGRRVMMTAHRFGSAVVVVSERDIAETKAKEATDLGKEAGFPLMFTTEPEE
In the case of B12, the “Binding Pref.” value is reported as “F, W, Y”.

B13: PS564: PS372-homologous ClpS protein, SEQ ID NO: 78 (protein)
chain: MFEEVVSVAVAEPKTKKQSRTKPKRQPPYHVILWDDTDHTFDYVIKMMGELFRMPREKGYQLAKEVDTSGRAICMTTTLELAELKRDQIHAFGRDDASAHCKGSMSATIEPAEG
modifications: Planctomycetes bacterium Poly21
In the case of B13, the “Binding Pref.” value is reported as “I, L, V”.

B14: PS374: ClpS protein, SEQ ID NO: 7 (protein)
chain: MRWEDPLAAEPVTPGVAPVVEEETDAAVETPWRVILYDDDIHTFEEVILQLMKATGCTPEQGERHAWTVHTRGKDCVYQGDFFDCFRVQGVLREIQLVTEIEG
With B14 the “Binding Pref.” value was “F, Y, W, L”.

B15: PS572: PS372-homologous ClpS protein, SEQ ID NO: 86 (protein, listed as Blastopirellula marina)
chain: MSSEELSLQTRPKRQPPFGVILHNDDLNSFDYVIDSIRKVFHYELEKCFQLTLEAHETGRSLLWTGTLEGAELKQELLLSCGPDPIMLDKGGLPLKVTLEELPQ
B15 was tested, and the “Binding Pref.” value was “I, L, V”.

B16: PS569: PS372-homologous ClpS protein, SEQ ID NO: 83 (protein, listed as Planctomycetes bacterium)
chain: MYSKNQIKIYCSEDDKGQTATPLLEKKPKFAPLYHVILWDDNTHTYEYVIKLLMSLFRMTFEKAYQHTLEVDKKGRTICITTHLEKAELKQEQISNFGPDILMQNSKGPMSATIEPAN
With B16 the “Binding Pref.” value was “I, L, V”.

B17: PS563: PS372-homologous ClpS protein, SEQ ID NO: 77 (protein, listed as Acidobacteria bacterium)
chain: MSSRSATAYPEVEDDTSDQLQPLYHVILLNDEDHTYDYVIEMLQKIFGFPESKAFSHAVEVDTKGTTILLTCDLEQAERKRDLIHSYGPDWRLPRSLGSMAAVVEPAAG
B17 was tested, and the “Binding Pref.” value was “I, L, V”.

B18: atClpS1 C7S: ClpS protein, SEQ ID NO: 103 (protein)
chain: MIAEPISMQGEGDGEDGGTNRGTSVITRVKPKTKRPNLYRVLLLNDDYTPMEFVIHILERFFQKDREAATRIMLHVHQHGVGECGVFTYEVAETKVSQVMDFARQHQHPLQCVMEKK
In the case of B18, the “Binding Pref.” value is reported as “F, W, Y, L”.

B19: atClpS1 C7S, C84S, C112S: ClpS protein, SEQ ID NO: 104 (protein)
chain: MIAEPISMQGEGDGEDGGTNRGTSVITRVKPKTKRPNLYRVLLLNDDYTPMEFVIHILERFFQKDREAATRIMLHVHQHGVGESGVFTYEVAETKVSQVMDFARQHQHPLQSVMEKK
B19 was tested, and the “Binding Pref.” value was “F, W, Y, L”.

B20: PS573: PS372-homologous ClpS protein, SEQ ID NO: 87 (protein, listed as Leptospira fluminis)
chain: MSQTPVIEETTVKDPVKTGGPWKVVLWDDDEHTYDYVIEMLMEVCVMTMEQAFHHAVEVDTQKKTVVYSGEFEHAEHIQELILEYGPDPRMAVSKGSMSATLEKS
With B20 the “Binding Pref.” value was “I, L, V”.

B21: Synechococcus elongatus ClpS1: ClpS protein, SEQ ID NO: 105 (protein, listed as Synechococcus elongatus)
chain: MAVETIQKPETTTKRKIAPRYRVLLHNDDFNPMEYVVMVLMQTVPSLTQPQAVDIMMEAHTNGTGLVITCDIEPAEFYCEQLKSHGLSSSIEPDD
With B21 the “Binding Pref.” value was “F, W, Y”.

B22: PS375: ClpS protein, SEQ ID NO: 8 (protein)
chain: MEAEPETKVLASIPGVGTSEPFRVVLFNDEEHSFDEVIFQIIKAVRCSRAKAEALTMEVHNSGRSIVYTGPIEQCIRVSAVLEEIELRTEIQS
For B22, the “Binding Pref.” value was “F, L”.

B23: PS562: PS372-homologous ClpS protein, SEQ ID NO: 76 (protein, listed as Rubripirellula amarantea)
chain: MSDQQSMVAEPEVVVHTQDEKKLEKQNKRKKQPRYNVVLWDDTDHSYDYVVLMMKQLFHHPIETGFQIAKQVDKGGKAICLTTTMEHAELKRDQIHAFGKDDLIARCTGSMSATIEPVPE
In the case of B23, the “Binding Pref.” value is reported as “I, L, V”.

B24: PS566: PS372-homologous ClpS protein, SEQ ID NO: 80 (protein, listed as Planctomycetaceae bacterium)
chain: MSSPSSLDDVQVSTSRAKPANETRTRKQPPYAVIVENDDHHTFLYVIEALMKVCGHAPEKGFVLAQQIHTQGKAMVWSGTLELAELKRDQLRGFGPDNYAPRPVTFPLGVTIEPLP
In the case of B24, the “Binding Pref.” value is reported as “I, L, V”.

B25: PS578: PS372-homologous ClpS protein, SEQ ID NO: 92 (protein, listed as Planctomycetes bacterium)
chain: MSGTVVESKPRNSTQLAPRWKVIVHDDPVTTFDFVLGVLRRVFAKPPGEARRITREAHDTGSALVDVLALEQAEFRRDQAHSLARAEGFPLTLTLEPAD
B25 was tested, and the “Binding Pref.” value was “I, L, V”.

B26: PS565: PS372-homologous ClpS protein, SEQ ID NO: 79 (protein)
chain: MSEFDHEHSGDTSVADPIVTTKTAPKPQKHAENETETRRQPPYNVIILNDEEHTFDYVIELLCKVFRHSLATAQELTWRIHLTGRAVVLTTHKELAELKRDQVLAYGPDPRMSVSKGPLDCFIEPAPGG
modifications: Aquisphaera sp. JC650
With B26 the “Binding Pref.” value was “I, L, V”.

B27: PS568: PS372-homologous ClpS protein, SEQ ID NO: 82 (protein, listed as Dehalococcoidia bacterium)
chain: MTTPSLPTRETEVEERTEVEPERLYHLVLLDDDQHSYQYVIEMLASIFGYGSEKAWTLARIVDTEGRAILETASHAQCERHQSQIHAYGADSRIPTSVGSMSAVIEEAGTPPQT
B27 was tested, and the “Binding Pref.” value was “I, L, V”.
